Experimental data taken from patent US20020164762.
Positions count from the first letter of the chain named. In names and notes the source's numbering stands.

What was measured:
[1] = biological target: T1, Acetyl-Asp-Glu-Val-Asp-pNA
T1 chain: DEVD

[2] = biological target: T2, Acetyl-Tyr-Val-Ala-Asp-pNA
T2 chain: YVAD

B1: D381E N-His ICE (D381E-modified human interleukin-1β converting enzyme, p20/p10, with N-terminal polyhistidine tag) (protein)
chain 1: HHHHHHNPAMPTSSGSEGNVKLCSLEEAQRIWKQKSAEIYPIMDKSSRTRLALIICNEEFDSIPRRTGAEVDITGMTMLLQNLGYSVDVKKNLTASDMTTELEAFAHRPEHKTSDSTFLVFMSHGIREGICGKKHSEQVPDILQLNAIFNMLNTKNCPSLKDKPKVIIIQACRGDSPGVVWFKD
chain 2: AIKKAHIEKDFIAFCSSTPDNVSWRHPTMGSVFIGRLIEHMQEYACSCDVEEIFRKVRFSFEQPEGRAQMPTTERVTLTRCFYLFPGH
Km values [1]: 44 µM
Vmax values (M^-1 s^-1) [1]: 0.08
Km values [2]: 43 µM
Vmax values (M^-1 s^-1) [2]: 0.19

B2: WT N-His ICE (wild-type human interleukin-1β converting enzyme, p20/p10, with N-terminal polyhistidine tag) (protein)
chain 1: B1 chain 1
chain 2: B1 chain 2 with E65D
Km values [1]: 25 µM
Vmax values (M^-1 s^-1) [1]: 0.02
Km values [2]: 26 µM
Vmax values (M^-1 s^-1) [2]: 0.04
